# Laboratory results: IntAct's records for PubMed 29039417
# B1: BBSome complex member BBS4 (Homo sapiens), Q96RK4 (parent)
# chain: MAEERVATRTQFPVSTESQKPRQKKAPEFPILEKQNWLIHLHYIRKDYEACKAVIKEQLQETQGLCEYAIYVQALIFRLEGNIQESLELFQTCAVLSPQSADNLKQVARSLFLLGKHKAAIEVYNEAAKLNQKDWEISHNLGVCYIYLKQFNKAQDQLHNALNLNRHDLTYIMLGKIHLLEGDLDKAIEVYKKAVEFSPENTELLTTLGLLYLQLGIYQKAFEHLGNALTYDPTNYKAILAAGSMMQTHGDFDVALTKYRVVACAVPESPPLWNNIGMCFFGKKKYVAAISCLKRANYLAPFDWKILYNLGLVHLTMQQYASAFHFLSAAINFQPKMGELYMLLAVALTNLEDIENAKRAYAEAVHLDKCNPLVNLNYAVLLYNQGEKKNALAQYQEMEKKVSLLKDNSSLEFDSEMVEMAQKLGAALQVGEALVWTKPVKDPKSKHQTTSTSKPASFQQPLGSNQALGQAMSSAAAYRTLPSGAGGTSQFTKPPSLPLEPEPAVESSPTETSEQIREK
# partner: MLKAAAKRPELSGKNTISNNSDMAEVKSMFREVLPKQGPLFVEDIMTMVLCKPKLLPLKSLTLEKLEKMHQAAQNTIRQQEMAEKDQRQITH
# Variants of: B1
# Settings: with bbip1_human BBIP1, A8MTZ0
row,Variant,effect of a mutation on the interaction
1,Q470A,with no effect
2,T492A,with no effect
3,A476E,with no effect
4,N408K,with no effect
5,N390K,with no effect
6,P271K,with no effect
7,L348R,disrupting interaction strength
8,R359E,with no effect
9,V365E,with no effect
10,N275E,with no effect
11,Q490K,with no effect
12,L367E,with no effect
13,A289E,with no effect
14,F491A,with no effect
15,L351E,with no effect
16,S409K,with no effect
17,A321K,with no effect
18,G484A,with no effect
19,G484E,with no effect
20,F324P,disrupting interaction strength
21,I306P,disrupting interaction strength
22,L272E,with no effect
23,A427K,with no effect
24,N297K,with no effect
25,A329E,with no effect
